Assay results published in the MegaScale stability set (Tsuboyama et al. 2023).

B1: EEHEE_rd4_0363 (parent)
chain: VTVDIKGMEYHFDNPEEAKKFAERMAKELGGELKVENGTLKVE

Variants of: B1
Test: folding stability dG (cDNA display proteolysis); higher = more stable
Conditions: PBS, room temperature

Folding stability dG [kcal/mol]: each site, then its substitutions
G7: C 1.72, D 0.499, E 0.306, F 0.855, H 0.716, I 0.499, K 0.294, L 0.238, M 0.304, N 0.745, P 0.309, Q 0.441, R 0.237, S 0.507, T 0.445, V 0.407, W 0.811, Y 0.918
M8: A 1.54, C 2.23, D 1.24, E 1.63, F 2.11, G 0.564, H 1.99, I 2.46, K 2.44, L 1.93, N 1.58, P -0.136, Q 2.05, R 2.41, S 1.55, T 2.26, V 2.52, W 1.78, Y 2.06
E9: A 1.99, C 3.28, D 0.904, F 2.66, G 1.26, H 2.51, I 3.25, K 3.05, L 3.44, M 2.92, N 1.71, P 1.47, Q 2.69, R 2.9, S 2.32, T 2.55, V 2.93, W 2.25, Y 2.6
Y10: A 0.161, C 1.77, D -0.462, E -0.466, F 1.99, G -0.912, H 0.908, I 1.05, K 0.191, L 0.741, M 0.781, N -0.275, P -0.055, Q 0.239, R 0.383, S -0.033, T 0.289, V 0.768, W 1.56
H11: A 1.16, C 2.21, D 0.422, E 0.894, F 2.13, G 0.524, I 1.77, K 1.73, L 1.55, M 1.54, N 1.32, P 0.291, Q 1.39, R 1.87, S 1.33, T 1.77, V 1.84, W 2.26, Y 2.36
F12: A -0.113, C 1.66, E -0.877, G -0.303, H -0.13, I -0.023, K -0.237, L 0.213, M 0.11, N -0.908, P -0.958, Q -0.27, R -0.751, S -0.396, T -0.58, V -0.424, W 0.074, Y 0.382
D13: A 1.95, C 2.42, E 1.9, F 1.41, G 1.51, H 1.58, I 1.68, K 1.82, L 1.68, M 1.68, N 1.88, P 1.6, Q 1.73, R 1.74, S 2, T 1.93, V 1.64, W 1.58, Y 1.22
N14: A 0.941, C 1.81, D 2.33, E 1.18, F 0.914, G 1.08, H 1.3, I 0.929, K 1.08, L 1.02, M 0.77, Q 0.996, R 1.15, S 2.11, T 2.07, V 0.902, W 0.812, Y 0.952
P15: A 2.19, C 2.33, D 1.58, E 2.12, F 3.22, G 1.39, H 2.05, I 2.58, K 1.45, L 2.6, M 2.86, N 1.41, Q 1.75, R 1.45, S 1.64, T 1.52, V 2.17, W 3.73, Y 3.25
E16: A 1.78, C 2.17, D 2.02, F 1.7, G 1.24, H 1.63, I 1.71, K 1.33, L 1.65, M 1.71, N 1.41, P -0.084, Q 1.67, R 1.27, S 1.58, T 1.7, V 1.74, W 1.98, Y 1.79
E17: A 1.7, C 2.09, D 2.08, F 0.922, G 0.569, H 1.2, I 1.16, K 1.16, L 1.31, M 1.39, N 1.11, P -0.343, Q 1.5, R 0.908, S 1.38, T 1.23, V 1.17, W 0.794, Y 0.905
A18: C 1.03, E -0.431, F 0.719, G 1.46, H -0.269, I -0.262, K -0.683, L 0.471, M 0.379, Q -0.376, R -0.072, S -0.064, T -0.52, V -0.372, W 0.824, Y 0.753
K19: A 1.65, D 0.524, E 1.32, F 2.67, G 0.835, H 1.98, I 2.38, L 2.74, M 2.67, N 1.38, Q 2.17, R 2.65, S 1.35, T 1.71, V 1.96, W 3.27, Y 2.87
K20: A 2.42, C 2.28, D 1.7, E 2.08, F 1.62, G 1.18, H 1.53, I 2.08, L 2.06, M 1.88, N 1.77, P -0.999, Q 2.01, R 2.18, S 1.95, T 1.67, V 1.73, W 1.67, Y 1.57
F21: A -0.089, C 0.708, E -0.293, H -0.264, I -0.454, L -0.142, M -0.083, N -0.807, Q -0.803, V -0.636, W 1.64, Y 1.06
A22: C 1.54, D -0.23, E 0.571, F 1.23, G 0.968, H 0.228, I 1.5, K 0.798, L 1.48, M 1.39, N 0.039, Q 0.746, R 1.05, S 0.388, T 0.578, V 1.26, W 1.53, Y 1.06
E23: A 1.48, C 2.35, D 1.58, F 1.27, G 0.124, H 1.11, I 1.87, K 1.34, L 1.89, M 1.9, N 0.999, P -0.639, Q 1.65, R 1.16, S 1.08, T 1.31, V 1.55, W 1.4, Y 1.5
R24: A 2.11, C 2.83, D 1.68, E 1.99, F 2.28, G 1.29, H 1.94, I 1.5, K 2.01, L 1.99, M 2.11, N 1.55, P -0.281, Q 2.04, S 1.72, T 1.75, V 1.35, W 2.34, Y 2.34
M25: A 1.37, C 2.19, D 0.142, E 0.574, F 1.08, G 0.03, H 0.844, I 1.57
